Laboratory results published in PMC7427093, “Revising the mechanism of p75NTR activation: intrinsically monomeric state of death domains invokes the "helper" hypothesis” (Scientific Reports, 2020).
Values joined by “and” are separate entries in the source; they are usually repeats but may differ in a detail not shown here. Equal values may be shown once.

Columns and labels:
[1] = target: p75NTR death domain (Homo sapiens) (UniProt P08138); assay: homo-FRET; conditions: cited from earlier work
[2] = target: the molecule itself; assay: cross-linking; spontaneous disulfide formation of purified protein in DMPC/CHAPS q = 1 bicelles, LPR 1,000:1 (repeated at 200:1), without reducing agent, room temperature; non-reducing SDS-PAGE at several time points; irreversible second-order kinetics

p75NTR death domain (from UniProt P08138)
Kd [1]: 49 µM

B1: rP75-ΔECD-3CX-249C: rat p75NTR residues 245-425 with T249C, C279S, C379S, C416S (domain or fragment, UniProt P07174 245-425, looked up)
chain: TRGTCDNLIPVYCSILAAVVVGLVAYIAFKRWNSSKQNKQGANSRPVNQTPPPEGEKLHSDSGISVDSQSLHDQQTHTQTASGQALKGDGNLYSSLPLTKREEVEKLLNGDTWRHLAGELGYQPEHIDSFTHEASPVRALLASWGAQDSATLDALLAALRRIQRADIVESLSSESTATSPV
notes: p75 neurotrophin receptor (p75NTR), rat, UniProt P07174, residues 245-425 (transmembrane and intracellular domains); also called T249C mutant; p75-ΔECD-T249C; source: also in the membrane fraction of E. coli, not purified
stoichiometry N [2]: 2 and 4 and 6
